From paper PMC6281772 come the findings set out here.

This assay deals with tropomyosin of native porcine cardiac thin filaments (porcine (endogenous in pig heart)) (UniProt P42639). Description: cryo-EM structure.

In turn, “C0C1 fragment of human cardiac myosin binding protein-C (C0-PA-C1) (domain or fragment)” registered a frequency of segments with C1 in the C1-S position (C1 tethers actin and Tm) of 36%.
